Target: the molecule itself
Experiment: SEC-MALS; 0.2 to 0.4 mg/ml purified His-tag protein in 10 mM phosphate buffer, pH 7.0, 500 mM NaCl; self-association, dimer the only species

| Protein | stoichiometry N |
| --- | --- |
| Recombinant murine 6xHis-PDCD10, wild type (natural protein, PDCD10 (CCM3), murine, full length, amplified from a mouse fibroblast cDNA library and cloned into pMCSG7-His; 212 amino acids; Dimer in solution by SEC-MALS; also called CCM3; WT; not shown: 6xHis, N-terminal, kept) not shown | 2 |
| Recombinant murine 6xHis-PDCD10 Δ5KA mutant (K169A, K172A, K179A, K183A, K186A) (natural protein, PDCD10 (CCM3), murine, full length, with five K-to-A mutations made by site-directed mutagenesis; Dimer in solution by SEC-MALS; also called Δ5KA PDCD10; mutant Δ5KA ccm3; source: E. coli BL21DE3, purified; not shown: 6xHis, N-terminal, kept) not shown | 2 |

From publication PMC2909203, “Defining the Functional Domain of Programmed Cell Death 10 through Its Interactions with Phosphatidylinositol-3,4,5-Trisphosphate” (PLoS ONE, 2010)
